We go through one molecule from paper PMC5489419 (Molecular cell, 2017).

This experiment addresses WWP2 N-terminal fragment X (C2 domain, WW1 domain, WW2 domain) of TEV-cleaved WWP2 (human, UniProt O00308 1-395). As to the kind of experiment: SEC.

B1: WWP2 C-terminal fragment Y (WW3 domain, WW4 domain, HECT domain) of TEV-cleaved WWP2 (domain or fragment)
chain: not shown
In the case of B1, the binding result is “binds”.
